The text below walks through data of patent publication US20220306744A1 (CRESCENDO BIOLOGICS, published 2022).

For test [1], the target named is T1, recombinant human PD-1 Fc chimera (human, UniProt Q15116 25-167).
T1 construct: Bought protein (R&D 1086-PD in the HTRF assay); also called human PD-1-hu Fc; huPD-1Fc; not shown: human Fc
In words: SPR Biacore T200, single cycle kinetics, human PD-1-hu Fc amine coupled to CM5, 1:1 model. As to the method: Binding kinetics of certain humabodies binding to human PD-1-hu Fc were measured by surface plasmon resonance (SPR) technology using Biacore T200 instrument (GE Healthcare). Recombinant human PD-1-hu Fc was immobilized by standard amine coupling to CM5 sensors chip (GE Healthcare) using 0.1 mg/ml solution of antigen in 10 mM sodium acetate at pH 5.5. For the reference flow cell, a blank immobilisation was carried out. Single cycle kinetics assays were used to study the interaction, a five point, three-fold dilution series of each Humabody® VH was made with a top concentration of 30 nM. The binding kinetics were followed by flowing the Humabody® VH over the chip surface in HBS EP+ buffer at a flow rate of 30 μl/min. The contact time for each of the association steps was 180 seconds and the dissociation step was varied between 1200-3600 seconds. The data was fitted to a 1:1 binding model after double reference subtraction using the Biacore T200 Evaluation software.
On the technique in general: Surface plasmon resonance follows binding to a sensor surface in real time, without labels.

The target of test [2] is T2, human PD-1 expressed on cells (CHO TREX human PD1 cell line, full-length human PD-1 sequence) (human, UniProt Q15116 21-288). In words: cell-based or functional assay.
T2 sequence (Q15116 21-288): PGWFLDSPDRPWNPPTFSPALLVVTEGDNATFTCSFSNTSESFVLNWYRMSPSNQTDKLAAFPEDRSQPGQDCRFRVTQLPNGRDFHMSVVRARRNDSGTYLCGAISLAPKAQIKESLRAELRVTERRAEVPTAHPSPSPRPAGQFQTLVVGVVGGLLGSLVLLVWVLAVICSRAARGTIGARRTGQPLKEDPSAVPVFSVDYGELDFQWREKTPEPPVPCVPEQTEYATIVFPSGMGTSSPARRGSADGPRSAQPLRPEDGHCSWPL
The target in test [3] is T2, human PD-1 expressed on cells (CHO TREX …). In words: flow cytometry, PHA-stimulated human CD4+ T cells, Donor 1. As to the method:
(§1) Binding of monovalent single domain antibodies and multivalent binding agents to T cells was measured using flow cytometry. Peripheral blood mononuclear cells (PBMCs) were isolated from human blood by density gradient centrifugation then CD4+ T cells purified using a negative selection isolation kit according to the manufacturer's protocol (Miltenyi Biotech cat no 130-096-533). T-cells were stimulated with 2.5 μg/ml PHA for 3 days in RPMI media supplemented with 10% FBS, 2 mM Glutamine, 1× Pen/Strep. Cells were transferred into 96 well plates (75000 per well), blocked for 10 mins with PBS/1% BSA, then incubated with serially diluted VH in staining buffer (PBS/1% BSA) for 1 hour at 4° C. Cells were washed with staining buffer by centrifugation then incubated with 10 μg/ml biotinylated Anti His antibody for 40 mins at 4° C. Cells were washed again then stained with Streptavidin Alexa Fluor-488 (10 μg/ml) and 1:5000 diluted Live Dead near IR stain (Molecular Probes cat no. L10119) for 30 mins at 4° C. After further washing cells were fixed and fluorescence measured by flow cytometry.

Test [4] shares this target. In words: epitope competition assay on CHO human PD1 cells (labelled VH not specified) after 1 day in mouse serum. As to the method:
(§2) Serum stability of VH and multivalent VH constructs was assessed by measurement of their activity following incubation for 0, 1, 4 or 7 days both in mouse (Sigma M5905) and human serum. […] Minimal loss of activity was observed following incubation with serum.

For test [5] the target is unchanged. The test can be described thus: FMAT: inhibition of PDL-2 (100 pM) binding to CHO human PD-1 cells. As to the method: (§3) Purified VH were serially diluted in FMAT assay buffer and tested for binding to CHO human PD-1 cells as described above and for inhibition of human PD-L1/PD-L2 binding to CHO human PD-1 cells. All reagents and serially diluted VH were prepared in FMAT assay buffer. VH, buffer (total binding controls) or excess competitor (non-specific binding control) were incubated with 400 pM human Fc tagged human PD-L1 or 100 pM PDL-2, 4 nM anti human Fc-Alexa Fluor-488 and 2000 per well CHO human PD-1 DRAQ5 stained cells in a 384 well black clear-bottomed assay plates. Plates were incubated for 2 hours at room temperature then fluorescence measured in the FL2 (502 nm-537 nm) and FL5 (677-800 nm) channels on the Mirrorball plate reader (TTP) following excitation at 488 nm and 640 nm. Data was expressed as a % of the total binding control (i.e. % control) after subtraction of the background signal determined from the non-specific binding control wells. The results are shown in FIG. 5 and in Tables 8 and 9 below.

Test [6] shares this target. The test can be described thus: FMAT: inhibition of human Fc tagged human PD-L1 (400 pM) binding to CHO human PD-1 cells. As to the method: as §3
The target is the same in test [7]. The test can be described thus: flow cytometry, PHA-stimulated human CD4+ T cells, Donor 2. As to the method:
as §1

Test [8] has the same target. In words: FMAT epitope competition, CHO human PD1 cells; competitor Epitope 1 (1.1-Strep tagged protein). As to the method:
For the epitope competition assay reagents were prepared in FMAT assay buffer.
Multivalent molecules 1.92b-4GS-1.39a and 1.92b-4gs-1.62a were tested in the epitope competition assay as described above. 1.92b-4GS-1.39a and 1.92b-4gs-1.62 did cross compete with 1.1-Strap tagged and 2.1-Strap tagged proteins for binding to the cells.
Plates were incubated for a minimum of 1.5 hours at room temperature then fluorescence measured in the FL2 (502 nm-537 nm) and FL5 (677-800 nm) channels on the Mirrorball plate reader (TTP) following excitation at 488 nm and 640 nm. Data was expressed as a % of the total binding control (i.e. % control) after subtraction of the background signal determined from the non-specific binding control wells.

The target is the same in test [9]. In words: epitope competition assay on CHO human PD1 cells (labelled VH not specified) after 7 days in human serum. As to the method: as §2
Test [10] has the same target. The test can be described thus: epitope competition assay on CHO human PD1 cells (labelled VH not specified) after 1 day in human serum. As to the method:
as §2

T1 sequence (Q15116 25-167 limits assumed, change not shown): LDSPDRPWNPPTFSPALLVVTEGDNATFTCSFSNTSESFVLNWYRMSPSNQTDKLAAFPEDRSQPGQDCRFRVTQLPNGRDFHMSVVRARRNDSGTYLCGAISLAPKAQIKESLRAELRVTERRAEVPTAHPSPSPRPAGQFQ

B1: 1.92b-4GS-1.39a (other)
chain: EVQLVESGGGLVKPGGSLRLSCAASGFTFSDESMTWMRQAPGKGLEWVSYISSGGGVKFYADSVKGRFTISRDNAKNSLYLQMNSLRAEDTAVYYCAREAPLRLGESPHDAFDISGQGTMVTVSSGGGGSGGGGSGGGGSGGGGSEVQLVESGGGLVQPGRSLRLSCAASGFTFDDYALHWVRQAPGKDLEWVSGISWNGGSYGYADSVKGRFTISRDNAKNSLYLQMNSLRAEDTALYYCVREKGPGLTGSTADYYGLDAWGQGTMVTVSS
notes: Biparatopic VH-linker-VH; built from its parts here because it is not clear whether 1112 is the protein or the nucleic acid
With B1, the Kd (usually a measure of binding affinity in units of concentration) in test [1] turned out to be 0.012 nM. Moreover, in [1], the koff (usually the rate constant with which the complex falls apart) stood at 6.5e-06 s⁻¹. In addition, the association rate constant (kon) (commonly the second-order rate constant of association) in test [1] came to 510000 M⁻¹ s⁻¹. In addition, the “EC50 (M), NFAT-Luciferase reporter gene assay” value in test [2] amounted to 2e-09 M. Also, the EC50 (commonly the midpoint of the concentration-response curve) in [3] was 0.5 nM; in test [7], 0.6 nM; in test [8] it was 1.1 nM. In addition, the IC50 (usually the concentration at which inhibition is half-maximal) in test [4] worked out at 1.3 nM; in test [5], 1.9 nM; in [6], 1.45 nM; in test [9], 1 nM; in [10] it was 0.9 nM.

B2: 1.92b-4GS-1.62a (other)
chain: EVQLVESGGGLVKPGGSLRLSCAASGFTFSDESMTWMRQAPGKGLEWVSYISSGGGVKFYADSVKGRFTISRDNAKNSLYLQMNSLRAEDTAVYYCAREAPLRLGESPHDAFDISGQGTMVTVSSGGGGSGGGGSGGGGSGGGGSEVQLVESGGGVVRPGGSLRLSCAASGFTFDDYAMSWVRQAPGKGLEWVSGITWNAGSTGYADSVKGRFTISRDNAKNSLYLQMNSLRAEDTALYYCVRDKYSYAWSYDDFDIWGQGTMVTVSS
notes: Biparatopic VH-linker-VH; also called 1.92-4GS-1.62a; 1.92b-4gs-2.12a
As for B2, the dissociation constant Kd in test [1] turned out to be 0.0097 nM. In test [1], the koff was 4.3e-06 s⁻¹. For the same molecule, the kon in test [1] is 440000 M⁻¹ s⁻¹. In addition, in test [2], the “EC50 (M), NFAT-Luciferase reporter gene assay” value turned out to be 1.2e-09 M. In addition, the EC50 in test [3] came to 0.3 nM; in test [7] it was 0.4 nM; in test [8] it was 1 nM. For the same molecule, the IC50 in test [4] turned out to be 2 nM; in test [5], 1.6 nM; in test [6] it was 1.2 nM; in test [9] it was 1.1 nM; in [10] it was 1.3 nM.
